From patent US20180022822A1, “NOVEL ANTI-FIBROBLAST ACTIVATION PROTEIN (FAP) BINDING AGENTS AND USES THEREOF” (Mabimmune Diagnostics AG, priority 2016, published 2018)

T1: recombinant human FAP (sFAP, FAP) versus CD26 and unrelated human antigens (A-N) (Homo sapiens, UniProt Q12884)
T1 sequence (Q12884 26-760 limits assumed): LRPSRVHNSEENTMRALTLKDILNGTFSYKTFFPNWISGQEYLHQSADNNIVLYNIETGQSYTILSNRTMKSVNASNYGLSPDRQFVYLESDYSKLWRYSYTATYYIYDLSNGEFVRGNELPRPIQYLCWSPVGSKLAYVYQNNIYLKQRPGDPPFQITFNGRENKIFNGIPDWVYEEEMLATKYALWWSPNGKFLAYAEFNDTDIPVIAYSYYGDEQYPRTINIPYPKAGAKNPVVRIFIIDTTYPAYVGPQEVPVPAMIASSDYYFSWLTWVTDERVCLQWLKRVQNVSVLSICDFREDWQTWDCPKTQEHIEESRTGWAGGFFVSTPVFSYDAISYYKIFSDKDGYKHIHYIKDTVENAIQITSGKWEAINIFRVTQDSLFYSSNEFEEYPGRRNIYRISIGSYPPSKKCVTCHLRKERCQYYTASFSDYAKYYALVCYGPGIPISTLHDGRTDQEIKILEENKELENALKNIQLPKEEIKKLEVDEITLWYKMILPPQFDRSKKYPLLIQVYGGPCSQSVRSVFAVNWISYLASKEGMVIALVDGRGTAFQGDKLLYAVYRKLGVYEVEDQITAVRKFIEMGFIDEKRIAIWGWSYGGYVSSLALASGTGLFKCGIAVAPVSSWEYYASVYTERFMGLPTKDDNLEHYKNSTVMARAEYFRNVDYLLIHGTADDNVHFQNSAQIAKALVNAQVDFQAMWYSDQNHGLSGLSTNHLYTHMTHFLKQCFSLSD


Experiments:
[1] = target: T1, recombinant human FAP (sFAP, FAP) versus CD26 and unrelated human antigens (A-N); experiment: binding specificity ELISA against FAP versus unrelated human antigens; settings: detection antibody at 20, 4 and 0.8 nM
Procedure: A mouse anti-6×-histidine tag antibody (Clonetech) was coated at a concentration of 3 μg/ml in PBS to a 96 well ELISA plate, the plates were then blocked with 5% BSA in PBS, and enzymatically active recombinant human FAP with an N-terminus 6× histidine tag was added to the plates to be captured. The binding efficiency of NI-206.82C2, NI-206.18H2, NI-206.20A8 and NI-206.6D3 (at 20 nM, 4 nM, and 0.8 nM) against sFAP and of NI-206.18H2, NI-206.20A8 and NI-206.6D3 against FAP as well was then tested by 1 hour incubation, followed by washing with PBS and detection with an HRP-labelled goat anti-human antibody (Jackson Immunoresearch) using a colormetric assay. To assess NI-206.82C2, NI-206.18H2, NI-206.20A8 and NI-206.6D3 binding other targets, recombinant human CD26 (only in case of NI-206.82C2) and fourteen other unrelated recombinant human proteins (A-N) were individually added to a 96-well ELISA plate in triplicate, and the binding efficacy of NI-206.82C2 was evaluated. (FIG. 7A to D)

BSA = target: T2, BSA (Bos taurus, UniProt P02769); experiment: ELISA control binding to BSA; design: species or system bovine
T2 construct: purchased Sigma-Aldrich
Procedure: ELISA assays were performed with varying antibody concentrations to validate the binding of the exemplary antibodies of the present invention to FAP and to be able to determine their half maximal effective concentration (EC50). For the exemplary recombinant human NI-206-18H2, NI-206-20A8, NI-206-6D3, ‘NI-206-14C5, NI-206-34C11, NI-206.82C2, NI-206.59B4, NI-206.22F7, NI-206.27E8, NI-206.12G4 and NI-206.17A6 antibodies, 96-well microplates (Costar, Corning, USA) were coated with FAP, with a mixture of the 3 peptides or with BSA (Sigma-Aldrich, Buchs, Switzerland) diluted to a concentration of 5 μg/ml in carbonate ELISA coating buffer (15 mM Na2CO3, 35 mM NaHCO3, pH 9.4) for the direct ELISA. For the capture ELISA, the microplates were coated with mouse anti-His monoclonal antibody (Clontech) diluted to a concentration of 3 μg/ml in PBS, the plates were then blocked, FAP or BSA were diluted to a concentration of 2 μg/ml in PBS and added to the plates to be captured. The binding efficiency of the antibodies was then tested.

[2] = system: human invasive ductal carcinoma and invasive lobular carcinoma sections; experiment: confocal immunofluorescence on human carcinoma cryosections; settings: Cy3 labelled antibody
Procedure: NI-206.82C2 was labelled with Cyanine 3 for fluorescent imaging (Cy3 conjugation kit: Innova Biosciences, 340-0030) and antibody labelling was validated using a spectophotometer. Cryosections from human invasive ductal carcinoma tissues (FIG. 9, A) and invasive lobular carcinoma (FIG. 9, B) were fixed for 5 minutes in ice cold acetone and allowed to dry for 10 minutes before washing in PBS. The sections were then incubated for 1 hr at room temperature in 5% BSA in PBS. The tissue sections were then incubated with Cyanine 3 prelabelled antibodies overnight at 4° C., and then washed three times in PBS before incubation with DAPI at 0.5 μg/mL. Sections were then washed three additional times in PBS and mounted in Lisbeth's mounting medium before imaging on a SP8 confocal microscope (Leica Microsystems).

[3] = system: human blood plasma clotting; experiment: rotational thromboelastometry (ROTEM, NATEM) of human blood plasma
Procedure: Two batches of peripheral blood were taken from a single healthy subject in sodium citrate tubes and platelet-free blood plasma was prepared by centrifugation. Blood plasma from each tube was pooled and immediately aliquoted for storage at −80° C. The plasma has an FAP level of 130 ng/ml by ELISA. Plasma samples were treated with NI-206.82C2 (n=3) against FAP or 43A11 control (n=3) diluted in sterile saline and added to fresh fast thawed plasma such that the final concentration of antibody in the sample was 0.000667 nM, 0.00667 nM, 0.0667 nM, 0.667 nM 6.667 nM of plasma. Following 1 hr incubation with the antibody at 37° C., NATEM analysis was performed according to the manufacturer's instructions by using STAR-TEM reagent to observe the native blood clotting process after an incubation time with the antibodies of 1 h at 37° C. with the antibody before starting measurement. Statistical analysis was performed using a two-way ANOVA (*p<0.05, ** p<0.01, *** p<0.005, **** p<0.001).

[4] = increasing antibody concentrations

T2 sequence (P02769 25-607): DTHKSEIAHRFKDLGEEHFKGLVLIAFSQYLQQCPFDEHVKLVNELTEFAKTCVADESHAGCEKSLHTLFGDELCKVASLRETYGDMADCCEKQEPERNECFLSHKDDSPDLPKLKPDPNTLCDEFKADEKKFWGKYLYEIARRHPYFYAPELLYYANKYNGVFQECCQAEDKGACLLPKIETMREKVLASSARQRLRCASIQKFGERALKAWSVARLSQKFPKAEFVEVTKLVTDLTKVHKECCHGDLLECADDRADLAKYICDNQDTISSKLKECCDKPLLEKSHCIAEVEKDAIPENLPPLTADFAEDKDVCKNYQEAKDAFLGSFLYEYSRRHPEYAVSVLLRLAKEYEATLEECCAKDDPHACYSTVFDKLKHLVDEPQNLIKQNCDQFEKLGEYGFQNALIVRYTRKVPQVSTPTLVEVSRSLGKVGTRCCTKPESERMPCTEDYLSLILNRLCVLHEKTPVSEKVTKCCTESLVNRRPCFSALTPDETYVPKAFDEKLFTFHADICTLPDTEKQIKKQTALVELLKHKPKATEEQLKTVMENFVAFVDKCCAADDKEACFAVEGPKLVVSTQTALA

Row | Molecule | colorimetric ELISA signal against FAP versus panel of unrelated human antigens [1] | binding to BSA (BSA) | binding to human invasive ductal and invasive lobular carcinoma sections [2] | clot formation time ([3]; 0.000667-6.667 nM antibody) | clot rigidity [3, 4] | maximum clot elasticity [3, 4] | maximum clotting angle [3, 4]
1 | NI-206.18H2: human-derived recombinant anti-FAP antibody; VH SEQ ID NO: 41, VL SEQ ID NO: 43 (antibody, listed as Homo sapiens, V domains shown) VH: QVQLQESGPRLVKPSETLSLTCTVSGYSISNGYYWGWIRQPPGQGLEWIASVWHSGNTYHNPSLKSRVTILVDTLKNQFSLNLKSVTAADTALYYCARSYTRNDVGAFETWGQGTMVTVSS VL: SYELTQPPSVSVSPGQTARIACSGDELPKRYAYWYQQKSGQAPVLVMYEDTKRPSGIPERLSGSSSGTVTTLTISGAQVEDEADYYCYSTAPSGNHTFVFGTGTRVTVL | significantly greater | does not bind | – | – | – | – | –
2 | NI-206.82C2: human-derived recombinant anti-FAP antibody; VH SEQ ID NO: 2 or 4 (PIMC), VL SEQ ID NO: 6 (antibody, V domains shown) VH: QVQLQQSGPGLVKPSQTLSLTCAISGDSVSSNSVTWNWIRQSPSRGLEWLGRTYYRSKWYNDYAVSVKGRITINPDTSKNQFYLQLKSVTPEDAAVYYCARDSSILYGDYWGQGTLVTVSS VL: QAVLTQPSSLSASPGASASLTCTLPSGINVGTYRIFWFQQKPGSPPQYLLSYKSDSDNHQGSGVPSRFSGSKDASANAGILLISGLQSEDEADYYCMIWHSSAWVFGGGTKLTVL | significantly greater | does not bind | specifically binds | dose dependent prolongation | reduces | decreases | reduces
3 | NI-206.6D3: human-derived recombinant anti-FAP antibody; VH SEQ ID NO: 49, VL SEQ ID NO: 51 (antibody, listed as Homo sapiens, V domains shown) VH: EVQLVESGGGLVKPGESLRLSCAASGFTFSKAWMNWVRQGPGKGLEWVGRVKSKTDGGTTDYAAPVKGRFTISRDDSKDTVFLQMNSLKTEDTAVYYCSIQFIVVGDRGRDDQYMDVWGKGTTVTVSS VL: SYVLTQPPSVSVSPGQTARITCSGDALPKQYAFWYQQKPGQAPVIMIYKDNQRPSGIPERFSGSSSGTTVTLTISGVQTEDEADYYCQSADSTNTHVVFGGGTKLTVL | significantly greater | – | – | – | – | – | –
